# Source: the supplement of paper PMC12764529
# ± gives the half width of the 95% confidence interval.
# Tests used:
# [1] = folding stability dG unfold from chymotrypsin proteolysis; higher = more stable
# Method: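 Folding stability of de novo designed mini-proteins (<80 aa, no Cys; designed by TrROS, TrMRF, ProteinMPNN and the joint model) was measured by cDNA display proteolysis with trypsin and chymotrypsin. Each protease was used at 11 concentrations in a threefold dilution series plus a no-protease condition. K50 was inferred by Bayesian fitting of sequencing counts, and dG unfold was derived against a sequence-predicted unfolded-state K50 (Tsuboyama et al. method). Sequences shown include variable-length N-terminal GS-type padding (SAGGSAGG...) inside a display construct carrying a PA tag. Rows were kept only if the AF2 dimer inter-PAE was >15, to exclude likely homo-oligomers.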
# [2] = folding stability dG unfold (combined trypsin and chymotrypsin); higher = more stable
# Outline: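 Designed mini-proteins with no cysteine and under 80 residues were kept only if AlphaFold2 dimer inter-PAE was above 15. In a PA-tagged cDNA display construct, they were digested with trypsin and chymotrypsin and then sequenced. K50 was inferred by Bayesian fitting of counts, and unfolding free energy was derived per protease or combined against a sequence-predicted unfolded-state K50 and a shared folded-state K50.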
Sequence,folding stability dG unfold [1] [kcal/mol],folding stability dG unfold [2] [kcal/mol]
SAGGSAGGSAGGGPAKALITSPDGSKAEATVTVDTATGTVTLTVENASLPPDWKLELLGSAGGSAGGSAGGS [r10_306_TrMRF],0.768 ± 0.065,0.0987 ± 0.23
SAGGSAGGSAGGGPGFTVLERREDPATGTVTILRRFAFPDGSTALEPRVVPRAPDERLESAGGSAGGSAGGS [r10_605_JUSTAS],-0.0135 ± 0.17,< -1
SAGGSAGGSAGGGPPVERVTTETILRPDGTTTTTRKTTVVPPTDTVTTTTTTLTTTPVTSAGGSAGGSAGGS [r10_1139_JUSTAS],0.328 ± 0.067,0.0441 ± 0.18
SAGGSAGGSAGGGRVLRLADGKWRLVELPDGSVVLVPENVPVLDPEAKEPVLVAPVLPLDSAGGSAGGSAGG [r7_968_TrMRF],0.938 ± 0.073,0.223 ± 0.06
SAGGSAGGSAGGGSVTRLPDGVTTVVTFPDGSTVTVPAGVPYTDPNAATPVTVSPVPPALSAGGSAGGSAGG [r7_968_JUSTAS],0.119 ± 0.1,< -1
SAGGSAGGSAGGGYVTLSHEIPPDQSVEITAPDGKKAKQERDPATKTVTYKISPELYKLLSAGGSAGGSAGG [r7_155_JUSTAS],-0.855 ± 0.56,< -1
SAGGSAGGSAGGKDEKPKPLKVPVIVAPAPEYLELAKKLLPPDKAKVIEKKDDKVVIAFGSAGGSAGGSAGG [r7_670_TrMRF],-0.425 ± 0.32,-0.533 ± 0.21
SAGGSAGGSAGGKKKVKILEVKKIPELNEIVVVIETENGKPVLVPLKPGKTLEDVKKEISAGGSAGGSAGGS [r10_984_TrMRF],0.913 ± 0.042,0.44 ± 0.21
SAGGSAGGSAGGKLTLKLGDYEVEVEWNPDEDVFIAEFPGDPRIARLRIPDDKIEIEPIESAGGSAGGSAGG [r7_156_TrMRF],0.819 ± 0.12,0.392 ± 0.11
SAGGSAGGSAGGKPITIERNEDNGPIEIRFPGNGRRIHFPFPPGDDITIDAEDGNIEIKSAGGSAGGSAGGS [r10_979_TrROS],0.827 ± 0.016,0.314 ± 0.086
SAGGSAGGSAGGKPTIKLKVTITNENGEKIEIEVEAESEEEALEALKALLPPGWKVEIESAGGSAGGSAGGS [r10_145_TrROS_Hall],2.82 ± 0.2,4.21 ± 0.67
SAGGSAGGSAGGKPVKVKVVIPVPDGDEVLVLEVEVEGEGGEEAVRQALEVAAELLREGSAGGSAGGSAGGS [r10_863_TrMRF],0.768 ± 0.088,0.0842 ± 0.23
SAGGSAGGSAGGKRRIQIPPDDPGMTAEQLADRLQKEFPENGVPVEITNIDDYGYIEIESAGGSAGGSAGGS [r10_579_TrROS],0.962 ± 0.021,0.443 ± 0.088
SAGGSAGGSAGGLHPDQEFAVRLDLDLDLRLGPGADLRVSDVRVGGVRVYDLRTGRWLDSAGGSAGGSAGGS [r10_248_TrMRF],0.445 ± 0.15,-0.323 ± 0.25
SAGGSAGGSAGGLKELADKLNPGFEIRVENIEPTPGPVRINVRAPNEGVPRSIPIDPDDISAGGSAGGSAGG [r7_303_TrROS],0.993 ± 0.018,0.479 ± 0.043
SAGGSAGGSAGGLLRAPDGSTAIVVRDASPETVARALHELNPNAVIVVAPIPNVAVIYLDSAGGSAGGSAGG [r7_370_TrMRF],0.178 ± 0.1,-0.575 ± 0.51
SAGGSAGGSAGGLPPGQKYVIKMYNPNGKRQEHEFEIPPGEPFKDFEFPNGWRYDIYPVKSAGGSAGGSAGG [r7_132_TrROS],0.0841 ± 0.29,-0.321 ± 0.42
SAGGSAGGSAGGMAVVVDSPEEAEEVIEELERSFPALGAKVVVPRVQVGDKLVLPLGLELSAGGSAGGSAGG [r7_588_TrMRF],0.0463 ± 0.068,-0.501 ± 0.15
SAGGSAGGSAGGMIKVLEKKEFTPPTGGKEYELKTLDESNGTESIIKFPKEEYKNLKIPSAGGSAGGSAGGS [r10_326_JUSTAS],0.681 ± 0.12,0.145 ± 0.2
SAGGSAGGSAGGMILTGDRAEILARLEAEGLGVAEEETVEEGDAPVTPVRVEVPPGAAGSAGGSAGGSAGGS [r10_885_JUSTAS],0.972 ± 0.028,0.561 ± 0.11
SAGGSAGGSAGGMITVNPRGGTATFTTSSGETTTVPASLADQVRVDTGLPDAPVFTAPPASAGGSAGGSAGG [r7_235_JUSTAS],0.183 ± 0.23,< -1

Sequence,folding stability dG unfold [1] [kcal/mol],folding stability dG unfold [2] [kcal/mol]
SAGGSAGGSAGGMKVTVEYPDALSVEVEPDSATTTYPNGSRIVVEAPGVTTYDPLPPERSSAGGSAGGSAGG [r7_30_JUSTAS],0.117 ± 0.046,-0.39 ± 0.24
SAGGSAGGSAGGMLPFEVLEVTTSTGKGKTTRTVLAREPEGPEVVLTFSPASPEEIERLLSAGGSAGGSAGG [r7_365_JUSTAS],0.735 ± 0.13,0.224 ± 0.13
SAGGSAGGSAGGMNTPIVVETEDLPSSRPVEEVKAEAAPKGYTEVKAYPDGTVVITKVRSSAGGSAGGSAGG [r11_961_JUSTAS],0.607 ± 0.047,0.164 ± 0.21
SAGGSAGGSAGGMPSSVVINLNLSKEEIEAIKKGKPVSPELKPAIEEAKKEGLKVEIKKSAGGSAGGSAGGS [r10_890_JUSTAS],0.796 ± 0.037,0.309 ± 0.13
SAGGSAGGSAGGMPVPRRLEIVVEPEYTEEEIEKIKKELIENGNPEIEEVVVVLPPNLESAGGSAGGSAGGS [r10_233_JUSTAS],0.285 ± 0.04,-0.385 ± 0.36
SAGGSAGGSAGGMRITIDDWDPDEGPYRVKVTNPDNNKKKTMPYENLEELAKEGPVEIHRSAGGSAGGSAGG [r7_452_TrROS],0.368 ± 0.18,-0.143 ± 0.13
SAGGSAGGSAGGMTITVPVEGVEEAIEKAKKEHPNTEIKITLLKPGGEKATTRTVKILGSAGGSAGGSAGGS [r10_741_JUSTAS],-0.403 ± 0.13,-0.951 ± 0.29
SAGGSAGGSAGGMTLTITDDDPSVGPRTFTLTEPGSSKTTTLTSAEMEALKAAGPVTVAGSAGGSAGGSAGG [r7_452_JUSTAS],0.122 ± 0.22,-0.209 ± 0.23
SAGGSAGGSAGGMTTKYVITVEVPGENRTETIYLDVPPSRPEEAEALAKEISPNAKIERLSAGGSAGGSAGG [r11_250_JUSTAS],0.187 ± 0.16,-0.144 ± 0.29
SAGGSAGGSAGGMTTLVLPAEVEPVPDGVRVRLPDGEDLYVPPGERVERTPDRVEVTLGSAGGSAGGSAGGS [r10_305_JUSTAS],0.383 ± 0.058,-0.448 ± 0.25
SAGGSAGGSAGGMTVTVTVPPEKVEETIKKLGSKAKSVEREVLETPLGEKVAVVTVTLENSAGGSAGGSAGG [r7_904_JUSTAS],0.647 ± 0.023,0.047 ± 0.093
SAGGSAGGSAGGMVEVLPVPDGSTLERDPAGYVTRYDPATGTATTVPLADVELSPGSPELSAGGSAGGSAGG [r7_656_JUSTAS],0.679 ± 0.11,-0.0715 ± 0.23
SAGGSAGGSAGGMVKKTYEKKKPPGSMEYVTEKEYDPKTNTVKTTTVPVSEYKNIPNKNSAGGSAGGSAGGS [r10_1077_JUSTAS],-0.0965 ± 0.56,< -1
SAGGSAGGSAGGNKIHIMMPYDWAEEFANELQQQGIDPDNVKIEVHPMEMPPPPPPGDKSAGGSAGGSAGGS [r10_602_TrROS],-0.0563 ± 0.11,< -1
SAGGSAGGSAGGPDVTTSDSVSLERLPDDTIVLRRTTTVTPPTGPPVVTSTTTVLPPSTLSAGGSAGGSAGG [r17_312_JUSTAS],-0.319 ± 0.41,< -1
SAGGSAGGSAGGPEIKPFDSLEEVVEEIKKNPNKERIYLLPDSVIYTLKEDKILKIEPLKSAGGSAGGSAGG [r7_532_TrMRF],-0.105 ± 0.47,< -1
SAGGSAGGSAGGPERELTVPITTPDGSGKSISAELGEEELEKLIEENPEWKEAIIEARRESAGGSAGGSAGG [r7_637_JUSTAS],0.975 ± 0.059,0.483 ± 0.11
SAGGSAGGSAGGPNWRIITHEIPIKDGEIEINLPEGIKPQSIERNPDDGYIKVSIVIPLSAGGSAGGSAGGS [r10_906_TrROS],-0.259 ± 0.14,-0.54 ± 0.15
SAGGSAGGSAGGPPIIEFPIKGDNPEQAKRFAKEVVDLLPDQNPENVDITTTDGWVRITSAGGSAGGSAGGS [r10_182_TrROS],-0.636 ± 0.67,< -1
SAGGSAGGSAGGPPNKKFILRIEHPGRPITFPFKSPKGLDEAADKFPDKFGMPPKIEVHPSAGGSAGGSAGG [r7_18_TrROS],-0.795 ± 0.92,< -1
SAGGSAGGSAGGPPTTARITLPDGRTYTVPVPVDPTTGTVYVEDIRRAVAPNYTFTIELGSAGGSAGGSAGG [r7_492_TrMRF],0.981 ± 0.16,0.414 ± 0.14
